Measured values published in a protein production outcome set (Wang et al. 2014).

Test: label from the status in PepcDB records

Sequence | protein production
MTKQKKLLPVASLLLGAAIWGVAWYPYRLLEQAGMRGELSTTLAYSIALLIGLILFRRQLRISEILNPAAGILFWISLSAGWTGIAYVLGIIHGEVMRVLLLFYLAPLWTILFSRILLQERLSRQGYAIILLSLAGALLLLWQPGSKLPLLASYGDWMGLSGGLAFALTNVLIRKDQQHGIQLKLLAVLSGTALTGFAATLLMESISDITHLHTHAWLILAGIGGLVFFLCILLQYGMTHIPANQAIVIMLFELVVAAIAAHFLTNEYLTGRDWAGGLMIASASLFSARVNRD | failed
MPLTNNSTTKPQEIAAIDLGSNSFHMVIARVVNGALQVLGRLKQRVHLADGLDSNNMLSEEAIERGLACLALFAERLQGFSPDNVCIVGTHTLRQAANAETFLKRAAEVIPYPIEIISGQEEARLIFMGVEHTQPEKGRKLVIDIGGGSTEMVIGEDFEPLLVESRRMGCVSFAQQFFPGGEISKNNFRRARLAAAQKLENLAWQYRIQGWQYALGASGTIKATYEVLVEMGEKDGLITPERLEMLVENVLQFKQFSALSLPGLSEDRQSVFVPGLAILCGVFDALAIKTLRLSDGALREGVLYEMEGRFRHQDIRQRTAKSLADHYNIDREQARRVLETTEQLYTQWLAQNTKLVQPQLEALLKWAAMLHEVGLSINHSGMHRHSAYILQNTNLPGFNQEQQTLLATLVRMHRKAIKLDELPRLNLFKKKYYLPLIQLLRLSTLLNNQRQSTTTPESLRLITDDSHWTLRFPHGYLTQNSLVQLDFEREQAYWDDVVGWKLVIEEEEPDEAAKVAPEE | not failed
VINQVESASKVIDWPLALKRSANKADLAKEMLLGLVESLPETQLSIREAIDVQDIAQIKRLVHKLNGACCYTGTPNLAKITIQLETQLKMGLSTEELEPEFLEFFEHIEQVLFAVPEALKEMSEN | failed
MNTLKKAFEILDFIVKNPGDVSVSEIAEKFNMSVSNAYKYMVVLEEKGFVLRKKDKRYVPGYKLIEYGSFVLRRFNIRDIAHDHLVDIMKRTGETVHLILKDGFEGVYIDKVEGEQSIPMVSRLGMKVDLYSTASGKSILAFVPEKELKEYLKIVELKPKTPNTITNPRVLKRELEKIRKRGYAVDNEENEIGIMCVGVPIFDHNGYPVAGVSISGVARKFTEEKIEEYSDVLKEKAEEISRKLGY | not failed
MNTKNLVFVALFSSIMGVLGLIPPIALSITPVPITLQSLGVMLAGGLLGSRLGALSQLIFLLIVGVGAPLLAGGRGGLGVFVGPSAGYLLGYIIGAFVIGYLIERLREVSIIKVLCINIIGGIFVVYVFGITVQAFLMDVSVWETMKVSAVFLPGDCIKAIIAAVLVTKLHRSLKHIITPALKNGKYTNAG | failed
MLRVLSVGVAFILLGCQFFNKTTLHLKYKDYPKNSALKTAFTLTPPKIFFNARFVPPFYQKEFKKAITQQIAYFLKDKSAFILNVSGNVFFSFEENPKDLKAIKERLKKTIEPNADPKAVMRFLNLQASLILECVPQTTCPFDTLLIPTAFSVPVYYANRLGDNPSLFSQEDKTYHNALIKALNKAYYSLMEGLEKRLNAIKNAEWL | failed
GDAPPEIHAIYTDITERTRLEETLTYRSELESKIVDISTRFINTPIDDLDREIEAALQAIGAFVDADRSYVFLFDDEAATMSNTHEWRTEATASTQSRLQNIPYAETPWFMARMRRREGPLRVPRLEDLPPDAAGLRQRLEAGNVQSLLVLPMLNDQDLIGFVGFDAVRQQRDWDADTVMLLRVLSDAISNALQRKTAEKEMLAAKEEAEDANRMKSVFLANMSHEIRTP | not failed
MKKFAIMGLGTFGVRMLDELIKIGAEVIIIEQNKDLIEMYKSKASSAIVLEEISELSVRKILPSKVDTVIVDFGRKVELSVISTTILKNLGIANIVVRAQSDEHGRLLKTVGATRIIYPDSEAAKRTTPILAADLLLKFMPISKNLALAEVGVEARYVGKSLAESNIRKDMGVNIIARRKKESEDFIFMDDPEYKFEEDDVLLVVASEEHIYNFSGGKISLKNNLKKDGEIKPSIFKNLFSSKKV | failed
MSEDRSSNGQKSWLGKLTQAFVHEPKNRQELLELLREAHQNKLLDSEALAIVEGAIQVADLQVRDIMVPRSQMISIKATQTPREFLPAVIDAAHSRYPVIGESHDDVLGVLLAKDLLPLILKADGDSDDVKKLLRPATFVPESKRLNVLLREFRANHNHMAIVIDEYGGVAGLVTIEDVLEQIVGDIEDEHDVEEDSYIKPLPSGDFLVKALTPVENFNEFFDSAFSDDEFDTVGGLVMNAFGHLPKRNEITEIGAYRFRILSADSRRIHLLRVTPISRP | failed
MGKEFFLQHDIVIMYSILFVFIIILKMQFFTWFGMLACMFGIVFYTLNEYMTHRFLFHIKPPKNTFLLKMLRRLHYDHHVYPDDLKLLFLPVWFSIPSFTIYLLIAYGITKSVTITLSFGIGMIIMLLVYEWKHYIAHRPIRPVTKFGRWLKKQHILHHYKNEKFWFGVSNPVFDFIFGTLKDGKDVELSETARNLEKEKKTKVVR | failed
MRGRFFFRSFEATLIGSEFLVSPETPGTRFAKAPSFRSKTEKDLCSAHGAAASGVLPLGLLEELVRSSPRSSQASGPAGSRQPAQRAPGHQVPAAKMLELLVASLSLALAFFALLDGWYLVRVPCAVLRARLLQPRVRDLLAEQRYAGRVLPSDLDLLLHMNNARYLREADVARAAHLTRCGVLGALRDLNAHTVLAASCARYRRSLRLFEPFEVHTRLQGWDDRAFYLEARFVSLRDGFVCALLRFRQHVLGTSPDRVVQHLCKRRVEPPELPEDLKHWISYNETSSQLLRAESGLSDRKDQ | failed
MSQSSKARLSTDPTVFEAVLNNHTPMMQQYLRIKAQHPDMLMFYRMGDFYELFFDDAEKAAKLLDITLTRRGTSAGEPIKMAGVPYHAAEQYLAKLVKLGESVVICEQVGDPATSKGPVERQVTRIITPGTLTDAALLEDKRDSALLALLVHESTLGLAWLNLAAGQFSVMETSVNNLTAELERLKPAEILLPESLNLAGINDRVIQEKLCVKHLPAWQFDTAAAVRNLSRQFGTHDLSGFGCEDLDVSLGAASALLDYTRLTQGASIGHIKGLRVEREDTYLRMDATTRRNLEISETIRGDAAPTLLSLLDTCSTNMGSRLLCHWLHHPLRDRGLIQNRLNGVSFLMGEAGSGPCLSVRDCLKRVTDIERITARIALKSARPRDLSGLRDSLKRLPAVNNAVAGTATTSSGGSDVSAHVAALIHSMAPDNALVALLEKSLKEEPEVMLRTGGVIADGYDAELDELRAIHNNCDEFLLQLETREKARTGIANLKVEYNRLHGFYIEVTHAHTEKIPDDYRRRQTLKNAERYITPELKAFEEKALSAQSRALEREKLLYGELLDMLSQYIDHLQQVARSVAELDVLATFAERALALDYSLPLFTSDSVIEIQAGRHPVVEKQVDSFIANDVQLGARTGGRRQMLVITGPNMGGKSTYMRQVALIALLAHCGSFVPARSALIGPLDQLFTRIGASDDLAGGRSTFMMEMTEAANILHNATAQSLVLMDEVGRGTSTFDGLALAFAIARYLLEKNRSYTLFATHYFELTRLAEEFAQVANVHLRAVEHKHHIVFLHAVNEGPASQSYGLQVAALAGVPDPVIRTARRYLLKLEQEALSNQPQGDLFSRDDLFWKQDRMPEGSVDKNDSAPEHPVLALLRTIVPDDLSPKQALEQLYGLKKAAEKE | failed
MKKESLFRYAREHFNSEPEYLWSNLPDYAVLRHDHGDKWFGIVMSVRGSTLGLKTDDKVDILDVKVRPEYIGSLRQKEGVLPAYHMNKEHWISVILSGPLSTKEIHELLADSHELTSGLEHHHHHH | not failed
MPLRFTTRRAEGGSARRPLSIVSCPLFCPSEPNQFSPMLFRQINDAKLAQYAYLIGCQETGEALLVDPERDIDRYLDLAEREGLEITAVTETHIHADFLSGARELAERFDTTLYLSDEGDENWKYEWAQGPKQGGGDYDVTWLHDGDTFQVGSVEVTALHTPGHTPEHLSFLVTDRGGGADEPMGLLTGDFVFVGDLGRPDLLESAAQVEGAMEPSARTLYTSVQRVLEMPDHLQVWPAHGAGSACGKALGAVPQSTLGYEKQFNPMIDAAREGEDAFVEAILADQPEPQIYFARMKRDNKEGMPVLGSLPAPRELTVRELEDAAADEAPLVIDTRLDRSAYMANHIPGSLYAPMNDTFNTVVGSLVEDETTPIVLIADEGDVEEAVRDLVRIGYDNVTGFAEIDTLQRYFQAGGPSETIDEITFADFDAELQDEATGVLDVRYRSEYEEGHVEGALNASYTRMPEYETELPTDKTLLVHCGSGARAAAASSYLARTGHSVKYVNDHFANYEAASEEAVAA | failed
MLVSLIYVFKQVLSANLDLFYILSLILLIKSLIKKEKYLIKLLYVIYIILFYTGIQIIFLNTSIDLIRYFVSSFKLILNFNLLFYIIKKIKFININKIIKNISYIFFIILVFALILRNNNILWRLNDYVNTFEEVRLRFFYYEPSELGFQVAIIIIIFVFKIYTKKIINKKDFCIIIFLSIILSLTSAYGAIISLMLALIPILFKSFKLNSYKKLLIAYSIILISIVIIYLNFYKISDSYIVQRGLSIISGEDGSVNYRFDIGLNIMINALKNTNLLGVGLSNANTDNFIIEYSNFGLVEVIANSFMYVITELGVLAVVFLVYLLIKCLISAKINNSILKLSLIIYIFSYQIAGGYFSNPTNWIIYGIILSNIKDEELFGRKD | failed
LGKILQGVVVVLSGFQNPFRSELRDKALELGAKYRPDWTRDSTHLICAFANTPKYSQVLGLGGRIVRKEWVLDCH | failed
MSWESINSKDLLSIPPSQNLSATRLLTSPDGSRYLLENSSDLCHLDESFSRLAGYGSSPDVGSRSVWASQALLRSGSVISCFLSCQQSLRQYIAKRKIERGRRLYEQNNQTEAVRTWRSALKGTCQREDCFQLLGYLYQAHMDWGKFREAIEFSHQQLGISEELDSPNMRAETYLNLSRAHASLGGLERSLSYARHSLYNECGTKCRSGLVHLTVARVYLEMGGFSRALEGLQGAYKIATAIGDPSLELQVYVALSELFGRLQDNDKSATYASKAYDLSRSLQLGDLNSCHHRAALLRMAVSLRKQGELGDAQDYCKEATKLSLISGDQATYTRSIRVMGDIYRNKMDMDRAFRQYEQAMGTSASLGDRMAQMEAMDGAARCLETLRLQNKICNCRPLEFNTRLLEVASSIGAKFLVRKIRCRLALIYRALGDEDQYNTHFRLANQTDAALGLNCGACGELLGLRPENLEALPCAHILHARCAYEILRRREKNAPRSCPACNKLISSRTHFCGSVPVESESTDRCVTAASTFNTNSLSVDGLLGINSDILLPSAAFCYVKNPALDTENSALLSPKVIYHSNLSLASLSMRASSLTIDSGQNVTSSV | failed
IDIEAMLGSVFDAMEPELDFTGEARNMDEARGQVRSFRSLEVPRVLHASPRVLVQSLADGKSVRHVDRAHFTDDERVEIGKDLLRFMYHGYFVHRFFHADPHAGNVFAAPGGPATLIDWGMVGRLD | failed
MYIVIAGGGEMGGELARALEKTHDVVVIDRNPQARERFASWDVKVVVGGATDPDTLREAGVDRADLFVASTDSDEINLLASLLAKGLGAKEAFCFVGKGGYVEVLTDPRTAEILGTRIDRVLWPQRAMAREIVEVILVPWAVDTEVLAGGRLRFVEYRVKEGGEYVHRLLSGEKWPEGVLLAGVVREGTFLSFAHPEFPELILEPGDKLLFVATQKAFSELAAYFTEGPGVRRVMVIGGGNVGFMVAQGLLKRRVEVVIVERNAERCQWLSEELPGALVIQGDGTDIELLEAEGMAEADAVVAVTDHDEKNLLASLLAKQMGVRKVITRVSRSETRRLFEQVGIDLALTPRQAAVREVLDWIGPENVEHIATLEESIEVLEVLVSEGAAPKALRDLVRPDAVPVALERDHRIFLYEEGLGLLPGDRLYLVAAREVADEVLAPFFPE | failed
MVEPSLVLYGAPYERAVEVLEETLRETGARYALLIDRKGFVLAHKEALWAPKPPPLDTLVTLVAGNAAATQALAKLLGEARFQEEVHQGERMGLYVDEAGEHALLVLVFDETAPLGKVKLHGKRAAEALARIAEEALANPPRLALDTEYREGAEALLDDLLRN | not failed
